From article PMC7768682 (Proceedings of the National Academy of Sciences of the …, 2020)
Ends that are not written are not given here.

Columns and labels:
Test in all cases: BLI
[1] = target: talin head t1-400 (human, UniProt Q9Y490 1-400)
[2] = target: talin head t1-405 (human, UniProt Q9Y490 1-405)
[3] = target: talin head t1-435 (human, UniProt Q9Y490 1-435)
Chain of talin head t1-435 (Q9Y490 1-435): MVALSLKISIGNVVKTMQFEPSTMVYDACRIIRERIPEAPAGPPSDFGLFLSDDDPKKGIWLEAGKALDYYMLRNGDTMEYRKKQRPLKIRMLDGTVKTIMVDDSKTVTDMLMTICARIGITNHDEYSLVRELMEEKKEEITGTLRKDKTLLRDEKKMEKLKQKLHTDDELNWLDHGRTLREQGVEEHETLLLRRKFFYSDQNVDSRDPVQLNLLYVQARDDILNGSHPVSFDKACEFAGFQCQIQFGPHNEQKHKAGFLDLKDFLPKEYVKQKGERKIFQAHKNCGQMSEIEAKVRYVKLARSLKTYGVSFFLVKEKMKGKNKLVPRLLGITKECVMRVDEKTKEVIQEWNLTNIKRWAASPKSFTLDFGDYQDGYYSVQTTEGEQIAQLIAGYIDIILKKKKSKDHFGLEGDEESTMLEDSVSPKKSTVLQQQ

Chain of talin head t1-400 (Q9Y490 1-400): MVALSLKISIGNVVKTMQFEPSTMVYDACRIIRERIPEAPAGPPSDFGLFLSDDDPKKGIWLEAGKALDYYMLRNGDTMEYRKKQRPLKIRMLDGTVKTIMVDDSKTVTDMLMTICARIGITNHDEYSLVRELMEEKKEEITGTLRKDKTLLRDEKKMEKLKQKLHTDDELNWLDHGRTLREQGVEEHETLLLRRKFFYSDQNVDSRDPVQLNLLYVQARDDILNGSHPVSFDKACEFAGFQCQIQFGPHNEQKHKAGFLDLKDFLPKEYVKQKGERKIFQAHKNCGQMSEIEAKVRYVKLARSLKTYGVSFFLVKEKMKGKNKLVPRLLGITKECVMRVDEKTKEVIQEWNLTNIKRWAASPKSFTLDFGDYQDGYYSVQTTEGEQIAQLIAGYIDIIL
Chain of talin head t1-405 (Q9Y490 1-405): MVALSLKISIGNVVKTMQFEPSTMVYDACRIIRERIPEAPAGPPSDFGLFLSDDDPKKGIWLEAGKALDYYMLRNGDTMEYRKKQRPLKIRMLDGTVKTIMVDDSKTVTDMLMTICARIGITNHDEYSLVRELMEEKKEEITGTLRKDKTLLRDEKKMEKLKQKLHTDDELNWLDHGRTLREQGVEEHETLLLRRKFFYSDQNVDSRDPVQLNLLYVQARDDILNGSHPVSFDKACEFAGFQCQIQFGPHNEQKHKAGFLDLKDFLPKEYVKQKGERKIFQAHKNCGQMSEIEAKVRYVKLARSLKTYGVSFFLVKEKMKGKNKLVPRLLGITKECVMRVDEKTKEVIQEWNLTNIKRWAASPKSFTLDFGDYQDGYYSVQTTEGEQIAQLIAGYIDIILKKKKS

binding result [1]: binds | binding result [2]: binds | binding result [3]: binds
Binder: {GST}-GSKLLITIHDRKEFAKFEEERARAKWDTANNPLYKEATSTFTNITYRGT (domain or fragment) [GST-integrin β3 cytoplasmic tail fusion, wild type (WT-β3)]
